Measured values reported in the supplement of paper PMC10724198.
± gives the standard deviation of the averaged measurements.

Tested on: Saccharomyces cerevisiae
Experiment: protein stability index of tFT-peptide fusion (C-terminal peptide) (PSI (0-1 scale)); higher = more stable (slower turnover)
Conditions: genetic background: wild type; temperature: 30 C
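Also: PSI is a weighted mean of sequencing reads over stability bins, variants kept only with over 10 reads, mCherry proximal and sfGFP distal, peptide attached via GGGS linker.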

Row | Sequence | protein stability index
1 | PDLTVYNLCGGC | 0.774 ± 0.098
2 | PDPPAPLPPHPV | 0.669 ± 0.053
3 | PDRPPVARATRP | 0.719 ± 0.017
4 | PDRPYPPPLVAR | 0.694 ± 0.058
5 | PDSLHTLRPPPP | 0.653 ± 0.022
6 | PEDRCLDLLILC | 0.5236 ± 0.004
7 | PEPMYHNSLFRP | 0.737 ± 0.018
8 | PERPDPPVNDRN | 0.62 ± 0.029
9 | PETIIENIMKRR | 0.688 ± 0.22
10 | PFCYALPWAPPR | 0.644 ± 0.076
11 | PFFRASFSGLID | 0.681 ± 0.061
12 | PFIYSLPAPLPF | 0.72 ± 0.035
13 | PFLHQRLLDSVL | 0.726 ± 0.1
14 | PFLLPPLPPGPL | 0.706 ± 0.062
15 | PFLPSPHPSPSS | 0.713 ± 0.022
16 | PFPCPSLPPPFP | 0.716 ± 0.022
17 | PFPFSPPHSLVS | 0.743 ± 0.027
18 | PFPHPPPPSPTP | 0.687 ± 0.021
19 | PFPPPHTPLPPS | 0.791 ± 0.016
20 | PFPPPPRLHLPP | 0.648 ± 0.04
21 | PFPPPSAPPPSP | 0.71 ± 0.015
22 | PFPRPLSPLPFR | 0.75 ± 0.074
23 | PFPSIPLPPPSR | 0.703 ± 0.03
24 | PFQPPSLIPSRH | 0.746 ± 0.026
25 | PFSSPDLLRCPH | 0.752 ± 0.024
26 | PFSVDLPWPPWE | 0.806 ± 0.053

Row | Sequence | protein stability index
27 | PFSVQLPDVDCL | 0.715 ± 0.16
28 | PFSWRPLSSPTA | 0.757 ± 0.004
29 | PFVIKSWSYVTR | 0.605 ± 0.02
30 | PFVSGLSGQHEQ | 0.637 ± 0.011
31 | PFVSGWEKGRSF | 0.757 ± 0.033
32 | PFYTNSSFCSLT | 0.6677 ± 0.00075
33 | PGASAKPHSSAN | 0.712 ± 0.031
34 | PGGQLRSHPPNV | 0.718 ± 0.013
35 | PGIHRPLAVEDL | 0.676 ± 0.032
36 | PGKSGRKLVSSG | 0.681 ± 0.012
37 | PGLDPFHGMNLS | 0.6906 ± 0.0027
38 | PGLQFPIWGVKG | 0.71 ± 0.045
39 | PGPPPGTDAFQH | 0.718 ± 0.12
40 | PGRSMCITLVKT | 0.595 ± 0.0078
41 | PGSADGPATYPL | 0.65 ± 0.03
42 | PGSLVLSVVDLV | 0.683 ± 0.056
43 | PGSQPPFVPPPR | 0.604 ± 0.019
44 | PGSSLAPAPPPP | 0.683 ± 0.0088
45 | PGSYLDAIVYHR | 0.701 ± 0.01
46 | PGTGGHKRASPV | 0.6293 ± 0.0016
47 | PGWGPLVARRFV | 0.735 ± 0.025
48 | PGYFGHVKLSCS | 0.646 ± 0.023
49 | PHAAERRKPCAP | 0.768 ± 0.011
50 | PHAPCPRPSVTV | 0.625 ± 0.086
51 | PHAPHFSRSIPS | 0.745 ± 0.027
52 | PHAPQSPGWLHG | 0.7 ± 0.028

Row | Sequence | protein stability index
53 | PHASLLPPSLSR | 0.728 ± 0.0085
54 | PHASRRPPTLLC | 0.514 ± 0.01
55 | PHATPPPTRPPS | 0.777 ± 0.062
56 | PHFSSLPWAPPG | 0.749 ± 0.041
57 | PHGSLPTRLPGP | 0.689 ± 0.035
58 | PHIRPPQCTRPI | 0.737 ± 0.015
59 | PHLANLFTWSSC | 0.66 ± 0.092
60 | PHLPPLPPAPPP | 0.724 ± 0.12
61 | PHLPPRPFPTAP | 0.757 ± 0.063
62 | PHNPFPTRTPPP | 0.71 ± 0.039
63 | PHNRSNSWPNPR | 0.714 ± 0.054
64 | PHPERLLCPPYP | 0.68 ± 0.024
65 | PHPGQSAPPRPP | 0.654 ± 0.038
66 | PHPPGFGPGRTL | 0.698 ± 0.068
67 | PHPPLPLSPPPP | 0.72 ± 0.0084
68 | PHPPPAPDAPCV | 0.683 ± 0.036
69 | PHPPPLPPLPSP | 0.721 ± 0.053
70 | PHPPPPRPPPRS | 0.642 ± 0.067
71 | PHPSATPTPVPP | 0.7001 ± 0.0017
72 | PHPSPGAALFAN | 0.643 ± 0.019
73 | PHPTLATPPRRR | 0.667 ± 0.096
74 | PHPTTPPAPRPR | 0.728 ± 0.0095
75 | PHRAPPRETRLG | 0.837 ± 0.015
76 | PHSKADISQIGG | 0.653 ± 0.0072
77 | PHTEPVIVACSG | 0.601 ± 0.033
78 | PHTPSRPLSPAP | 0.713 ± 0.063

Row | Sequence | protein stability index
79 | PILFLGGSMGER | 0.676 ± 0.011
80 | PIPPPPPPPHSP | 0.779 ± 0.043
81 | PIPPPPPPPPDP | 0.652 ± 0.017
82 | PIPPSTRSLHPL | 0.668 ± 0.027
83 | PIQNHRFLPIVL | 0.713 ± 0.036
84 | PIRAITQRSDGG | 0.682 ± 0.045
85 | PISIAVPCVLPP | 0.6654 ± 0.00093
86 | PISSYPPLPAPR | 0.718 ± 0.06
87 | PIYQTYSRHSYL | 0.683 ± 0.0089
88 | PKLAELKKISDR | 0.68 ± 0.063
89 | PKLSKLLQHSNV | 0.658 ± 0.048
90 | PLAPPFSPPPPP | 0.645 ± 0.0082
91 | PLAPPPPSSPPV | 0.675 ± 0.083
92 | PLCFSLFFPFRP | 0.657 ± 0.0099
93 | PLCPPPPTSPPP | 0.666 ± 0.031
94 | PLCPPYPPGRVP | 0.6841 ± 0.0021
95 | PLCRPARPRHHS | 0.7256 ± 0.0015
96 | PLCSPALHGPPP | 0.736 ± 0.033
97 | PLCSPPSPASNL | 0.714 ± 0.067
98 | PLDTPYMAYNSD | 0.71 ± 0.033
99 | PLECHTGVLGRL | 0.709 ± 0.0086
100 | PLEKASMTLWGR | 0.691 ± 0.05
101 | PLFAYCLIFPML | 0.533 ± 0.018
102 | PLFGLQTPTLHR | 0.712 ± 0.057
103 | PLFHLYRSSFPF | 0.721 ± 0.029
104 | PLFPRPFPPPRS | 0.717 ± 0.0091

Row | Sequence | protein stability index
105 | PLFSLVSLLLPI | 0.628 ± 0.036
106 | PLHLPPPFSPRP | 0.7333 ± 0.0063
107 | PLHPLTLPHLPT | 0.665 ± 0.092
108 | PLHSRPTRPKLE | 0.71 ± 0.092
109 | PLIASPQPPFPT | 0.6692 ± 0.0036
110 | PLKKLTRIIPKL | 0.747 ± 0.1
111 | PLLALANSPLYR | 0.6708 ± 0.005
112 | PLLCPASIHVTL | 0.679 ± 0.046
113 | PLLEGRRRKSGG | 0.635 ± 0.02
114 | PLLFGGGGVSVL | 0.70247 ± 0.00036
115 | PLLFPSSPLPPS | 0.63 ± 0.036
116 | PLLGLFTRYFDT | 0.7 ± 0.088
117 | PLLLLLPALPPL | 0.679 ± 0.026
118 | PLLPILTSPPRR | 0.71 ± 0.029
119 | PLLPPLSPPLPS | 0.7 ± 0.0078
120 | PLLPPPLFSLLR | 0.681 ± 0.015
121 | PLLPPPPSLRSP | 0.747 ± 0.1
122 | PLLPRPPPLPPP | 0.703 ± 0.055
123 | PLLRPTRLLPET | 0.699 ± 0.093
124 | PLLTPLCSVSHS | 0.689 ± 0.0072
125 | PLNALLHSNPDK | 0.711 ± 0.1
126 | PLPCSPRLRLSF | 0.646 ± 0.036
127 | PLPLFPLPPVAP | 0.66 ± 0.012
128 | PLPLPPLPPPLP | 0.656 ± 0.021
129 | PLPLPPPPHCLS | 0.702 ± 0.027
130 | PLPLSSSLHSQR | 0.702 ± 0.0084

Row | Sequence | protein stability index
131 | PLPPAARPPSAL | 0.729 ± 0.015
132 | PLPPAPPPPPPP | 0.728 ± 0.029
133 | PLPPLPLAPSLP | 0.708 ± 0.065
134 | PLPPPFLHLPPP | 0.683 ± 0.036
135 | PLPPPGRPPLLP | 0.639 ± 0.12
136 | PLPPPPFSVSPP | 0.724 ± 0.012
137 | PLPPPPLPPLPP | 0.702 ± 0.028
138 | PLPPPPRPRLPL | 0.764 ± 0.047
139 | PLPPPPSPLPHF | 0.692 ± 0.013
140 | PLPPPPVPPTPS | 0.606 ± 0.012
141 | PLPPPVPPPPPP | 0.66 ± 0.017
142 | PLPPRLPSPPSS | 0.742 ± 0.044
143 | PLPPRPAPPSSS | 0.681 ± 0.015
144 | PLPPRPPSPPPR | 0.699 ± 0.037
145 | PLPPSPYPSPSP | 0.661 ± 0.028
146 | PLPRLTRPSPPR | 0.681 ± 0.067
147 | PLPRPPPPPPPS | 0.7 ± 0.048
148 | PLPSAPVPPSAS | 0.71002 ± 0.0003
149 | PLQPRVLPSPRR | 0.688 ± 0.0011
150 | PLRISPPPAPHP | 0.7251 ± 0.0025
151 | PLRSFSLRPFPL | 0.775 ± 0.06
152 | PLRVPPPPCSRS | 0.722 ± 0.1
153 | PLSCSPPLLSPS | 0.678 ± 0.0089
154 | PLSLAPPPLPPY | 0.671 ± 0.061
155 | PLSLFPSSQCWS | 0.771 ± 0.038
156 | PLSPPPLPFPLL | 0.589 ± 0.0018

Row | Sequence | protein stability index
157 | PLSPSAAPSAPS | 0.737 ± 0.1
158 | PLSTCLAARCPL | 0.725 ± 0.085
159 | PLSTFSLSSFTV | 0.691 ± 0.045
160 | PLTFGLGPVNLP | 0.683 ± 0.054
161 | PLTPCPSATPAY | 0.648 ± 0.021
162 | PLTPVRCSICSV | 0.64 ± 0.037
163 | PLTRPTDNNPSN | 0.774 ± 0.081
164 | PLVFFAGLFLVD | 0.509 ± 0.041
165 | PLVSGMLTSHLA | 0.6613 ± 0.0014
166 | PLVSPPPLPHRP | 0.69 ± 0.02
167 | PLYLAYKDTLLS | 0.69 ± 0.035
168 | PLYPPLPTSLSS | 0.769 ± 0.027
169 | PLYPPPVNIPPT | 0.81 ± 0.067
170 | PLYSPPPHRYLL | 0.653 ± 0.019
171 | PMLGMSTLGDRF | 0.657 ± 0.038
172 | PMNVSDPRKVGR | 0.556 ± 0.037
173 | PNCAPLTAPRRR | 0.7159 ± 0.0069
174 | PNCTLVDSCWSI | 0.699 ± 0.022
175 | PNPPNSSNPPSP | 0.7013 ± 0.0031
176 | PNSPRCAIASPL | 0.702 ± 0.046
177 | PPAAPPPPPLPP | 0.735 ± 0.039
178 | PPAAPSPPPPRP | 0.719 ± 0.012
179 | PPADKRILQQIR | 0.692 ± 0.039
180 | PPAHPPPRLHPP | 0.541 ± 0.018
181 | PPALHPPPLPPR | 0.646 ± 0.028
182 | PPALPLFPNAAG | 0.709 ± 0.049

Row | Sequence | protein stability index
183 | PPALPPCRSRLV | 0.72 ± 0.049
184 | PPALRPSPPLSP | 0.698 ± 0.065
185 | PPAPFLLNPVPP | 0.727 ± 0.015
186 | PPAPLALPRLPS | 0.715 ± 0.061
187 | PPAPLLLPLSRP | 0.735 ± 0.0098
188 | PPAPPAFPRFGT | 0.703 ± 0.0051
189 | PPAPPHALPPGP | 0.671 ± 0.033
190 | PPAPPPADLGPP | 0.644 ± 0.093
191 | PPAPPPAPPHSS | 0.633 ± 0.061
192 | PPAPPPHPPLPP | 0.706 ± 0.043
193 | PPAPPPPPIRPP | 0.696 ± 0.033
194 | PPARHSPIFPVH | 0.786 ± 0.022
195 | PPASPPAYVTHP | 0.685 ± 0.049
196 | PPASSARPLLFL | 0.6664 ± 0.0053
197 | PPCPPPPAPPPP | 0.687 ± 0.044
198 | PPCVSGHPLRYS | 0.727 ± 0.045
199 | PPDGRPQEVWVP | 0.72 ± 0.037
200 | PPDHLTHPHIVN | 0.693 ± 0.013
201 | PPDLPPPPPPPT | 0.7 ± 0.055
202 | PPDPNCLPKQTS | 0.752 ± 0.058
